# Test results published in the DeepSol protein solubility set.
# Experiment: soluble on expression in E. coli; label from the status in PepcDB or PDB records
row,Sequence,soluble on expression in E. coli
1,MKVIEVTHPIQSKQYITEDVAMAFGFFDGMHKGHDKVFDILNEIAEARSLKKAVMTFDPHPSVVLNPKRKRTTYLTPLSDKIEKISQHDIDYCIVVNFSSRFANVSVEDFVENYIIKNNVKEVIAGFDFTFGKFGKGNMTVLQEYDAFNTTIVSKQEIENEKISTTSIRQDLINGELQKANDALGYIYSIKGTVVQGEKRGRTIGFPTANIQPSDDYLLPRKGVYAVSIEIGTENKLYRGVANIGVKPTFHDPNKAEVVIEVNIFDFEDNIYGERVTVNWHHFLRPEIKFDGIDPLVKQMNDDKSRAKYLLAVDFGDEVAYNI,not soluble
2,ALQAGRLGSTVFVANLDYKVGWKKLKEVFSMAGVVVRADILEDKDGKSRGIGTVTFEQSIEAVQAISMFNGQLLFDRPMHVKMDERALPKGDFFPPERPQQ,soluble
3,MERSLDSLAGMAKSAFGAGTSAAMRQATSPKTILEYIINFFTCGGIRRRNETQYQELIETMAETLKSTMPDRGAPLPENIILDDMDGCRVEFNLPGENNEAGQVIVRVSKGDHSETREIPLASFEKICRALLFRCEFSLPQDSVILTAQGGMNLKGAVLTGANLTSENLCDADLSGANLEGAVLFMADCEGANFKGANLSGTSLGDSNFKNACLEDSIMCGATLDHANLTGANLQHASLLGCSMIECNCSGANMDHTNLSGATLIRADMSGATLQGATIMAAIMEGAVLTRANLRKASFISTNLDGADLAEANLNNTCFKDCTLTDLRTEDATMSTSTQTLFNEFYSENI,not soluble
4,MSLKIVSFQDTKQNTGMESAEISEELNKLSKEKSDLQKKVNELQSQVKGYQNAAASSGSMNKQIVNELNTSNMLIGSVDVTGPGIILVITPQNISSSTNNSTGQNNDVITGEDLLYLINELNFSQAEAISINDVRITSMTGIRSSSGGSDIFVGDDRISPYEKITIKAIGDSKLLYSALSYPGVLSSVPSGYKADYDKYGSIKIGKTNKVIKFDYAKPISKEGHHHHHH,soluble
5,MGSDKIHHHHHHMKRLSLLERSRLPTNDLGNARRLFEAANGRLLWLADGAGGKGCWIAFDGIRWSADEGPMRALAFAQKAAVEICDEAHALRECTADELAEVYGRKFSKEMAEERAGQLWTWSIKSGDSAKTTAMQNQFKGLRDGDEGPFVTQVWQRDFDAQPMAYHCSNGTLRFVQDDAGTWSHVFEKGHRPDDRFMQVANVAYDAAAKAKAWIERMEVMHHDPVQRTALQRIYGMTLTALISDQAFYIFQGKGQDGKSVTNDVVCQLHGMYARKADPKTFLEGPTQQSSGPQSDIVRLAGDVRLVVMDEPKKNSTWDGQKIKQATGSEMIARGVHATTELSFTPHWQLIAECNGLPKAPSDDRGFRRRFKLYPWVVQFGVTPGVADEPVHLVKARLIGEGSGVLNWMIKGCVEWLNERVVPEPEAAKRATASFWSASSAMGEWIASHCDLSDPEAREEATPLYKAFRQFCIDRGDDETKIITQTTFGRQLNDAQIYRVPNNSTGKVERVGIRLKRVDELGGGALSTSGRDTFDDDVARFDADNRDPFGAP,not soluble
6,VNVLKKDITASPVLSETAPTSAPSEAAAANEIKQPIPSQKAEMSELKKLTDIISPELIEPNLVGETSDDIIDELIQKLSRRGALLSESGFKQAILNREQQGTTAIGMNIAIPHGKSEAVREPSVAFGIKRSGVDWE,not soluble
7,QVPPSFFQRIYRYHREHGGRFGTVHDVGAGIGPYAGELRSQFPHVIVSDIVPKNVQLAEAHLGRDGFRYRAAPVEVADDLPPGSVDLAFATNVMHFADQHAAMQAIATQLRPGGTFACAGFGPARFDDPDIQDVWERISQQGGRILLGMAEHPPDTINVMSRSSKEYNVAPLEPQWFRPGALRIRLNMAQGGITGLLPPERQQEVTDPDFAGPRDVVVYETNEEWRFETDWEGFLQHFRSFPHAGADPAAFTGLLQELKDLLDEGRCLRGCWPATLILATR,not soluble
8,MGHHHHHHSHMLSHNTMMKQRKQQATAIMKEVHGNDVDGMDLGKKVSIPRDIMLEELSHLSNRGARLFKMRQRRSDKYTFENFQYQSRAQINHSIAMQNGKVDGSNLEGGSQQAPLTPPNTPDPRSPPNPDNIAPGYSGPLKEIPPEKFNTTAVPKYYQSPWEQAISNDPELLEALYPKLFKPEGKAELPDYRSFTRVATPFGGFEKASRMVKFKVPDFELLLLTDPRFMSFVNPLSGRRSFNRTPKGWISENIPIVITTEPTDDTTVPESEDL,not soluble
9,MHVTLVEINVHEDKVDEFIEVFRQNHLGSVQEEGNLRFDVLQDPEVNSRFYIYEAYKDEDTVAFHKTTPHYKTCVAKLESLMTGPRKKRLFNGLMP,not soluble
10,MGSDKIHHHHHHMTESSINLLFSIDNRFVEQFKVTLYSLYQNTSNKNLKIYMLQKELLADHKAIERFCYQLGLSYKPIIIGEEDFKDAPVSDRYPETIYYRLLAQDYLPKSLDKILYLDADILCLNDIAPLYQMDMKNYIYAAASHVSDKSITDIVNKLRLNNFEAEGYFNSGVLLMNLEQCRQKIKPQDIMNYISRKGNTLLLPDQDVLNALYGTKTHLIPDEIYNYDARYNIIYFTRSLGEWDLDWVIENTVFLHFCGKDKPWRKDYKGRYAALYKHYQHRVKILEK,not soluble
11,MNFGESYCSFHCSWCQPLLDSLSKESCWYLNFQSVDESQFYDETYFASPKNKTPRVSGKLKEKLLQFVKTPEDLDRPRKRAIIHICRRIKKITGQDIDPEYISKLLYGLKRARRDKFRKINREIFRGLNWDFTQFEKCTFKCVLN,not soluble
12,MGSDKIHHHHHHMSYKVINVITAIDYIEEHLSEKLDLDIVANAVHYSKYHLHRTFTTSVGLTMHDYIKRRKLTEAAKLLVFSKKPIIEIALIAGYESQQAFTSIFKAMYKKSPNKYRKEQEFYPLQLRFVLKKDNLFLKNVLELEKEIKLASMSDIPLWMNLVRLVIDGFPNLQEEEYIYQLEQYILEERALILKLNNVAIANMVFNRETRSIDFFGIHPQYRNSDIAQVFLKKVIEDFLIDTDISITTFREGDKADTGHRDMIKKLGFAEAELLVEFGYPTQKFILPLS,not soluble
13,MQLNETAVGEKVRISELKIENAMLKRRLLALGCDEGCDICIKQKGLFGGPCTFETKGQYISIRQCDACAIMVERRLEHHHHHH,not soluble
14,MSLSAAEAGPLQGGLHVLIVDDNDINLKVLSTFMSKIGCSYDTASNGLVAVEKYRQTQQKFDYVLMDISMPIMDGITASRTIREYEDESLLERCTIMAVTGVASSDMQQQAFAAGMDDYLVKPLSLHDLKRILGVNEGHHHHHH,not soluble
15,GEALDYKTPLLKALAAVDKAATEVCQLFDKNVTRVFTNLGWEQEYFLVDSSLYNARPDLCLTGRTLMGHSSAKDQQLEDHYFGSIPPRVTAFMKELEIECHKLGIPAKTRHNEVAPNQFELAPIFENCNLANDHNQLVMDLMKRIARKHHFNVLLHEKPYSSVNGSGKHNNWSLCTDTGINLFAPGKNPKGNMLFLTFLVNVLMMVYKNQDLLRASIMSASNSYRLGANEAPPAILSCFLGSQLSATLDEIVRQVGNEKMTPEEKTTLKLGIGRIPEILLDTTDRNRTSPFAFTGNRFEFRAAGSSSNCAAAMIAINAAMANQLNEFRASVEKLMEEGVGKDEAIFRLLKETIIASEAIRFEGDGYSEEWRQEAARRGLTNICHVPEALMHYVDNQSKSVLIGERIFNETELNSRLEVELEKYTMKVQIEGRVLGDLAINH,not soluble
16,MGSDKIHHHHHHDEEPKSTLTDVAYYKTQSQMESNVNYLYRTGAIGSYVDFGSAYIGPFASIQEELTGYFSNSYEGQEIVCRYTRELTRQQNTMQLASKMDKVWDDCYRGINVANGAIKHMPEVPMDQATADRLTAEAKFFRAFNYFYLVKTFGAVPFYTDPYELAENMELPRTETSTIYNQIESDLKDAMNVLPEATFAANGHRITKYVAAMTLTDVYMYQHKYAEAAETVRIVVNSNHKLTTNDDLAMNSAFNKLRSTDDLDEAIYAYEYDNQISPSNWLPTYAFDGDASSNGLFGTYAITQKVHGPNDRYLNIYESNDLRRQPNQFYHWTYTNPKTGKVWNSVGNAACCWYYYDEDALLTTGRGTKDWNVYRYAEALLDAAESIAQSTGVTAEAAGYLAQVKARANMEGKTAAEIASSLQSMGKQAFIEECWTERLRELPLEFKMWDMCVRTGMFPNISETTPGQVTYIPLVGAKNASGATIKESDLLWPLSVNEIQRNPSLTQNEGYSAK,not soluble
17,MAKVIRNRWVYRTDNKWTRYLPRRNDAVKEFDYDKNGASLKHYTEEISEEMRPKQASKLWMAWLYRDTSAEPKWTKKHVENLFGADFKVGRMEVFRNTELINTELWKIKHLIELRPVEFKNGVEPTEDDIFSTSLAPNGQCEVIQGGHVASENDLKLADGKQWTRKELGRDLNKKYHLYQSVYEQNVHTPNNITVVK,not soluble
18,MGHHHHHHSHMTAPFFPRILGAVAFLNQETEPLTMNLQHHFLIAMPALQDPIFRRSVVYICEHNTNGAMGIIVNKPLENLKIEGILEKLKITPEPRDESIRLDKPVMLGGPLAEDRGFILHTPPSNFASSIRISDNTVMTTSRDVLETLGTDKQPSDVLVALGYASWEKGQLEQEILDNAWLTAPADLNILFKTPIADRWREAAKLIGVDILTMPGVAGHA,soluble
19,MGSDKIHHHHHHMTMIRVNDVLSVGPQPSISEIRSLAGHGFAGMINARPDGEEASQPGNAAEREAAGHADVPYTFIPVTMPTITEADVRAFQRAMADAGGPVFAHCKTGTRALTLYALGEALDGRMSSQDMAALGQKLGIDLSAASRWFEAHRQLRPDVKGFFDPRTGSVQYVVSDPDTRKCAIVDPVLDFDEKSGATTTRNADAMLSYIAENGLSVEWILDTHPHADHFSAAQYLKEKTGAPTAIGAPVVDVQRLWRGIYNWPELRVDGSQWDRLFSDGDTFKVGSMAARVMFSPGHTLASITYVIGNAAFVHDTIFMPDSGTARADFPGGDARVLWKSIQKILDLPDETRLFTGHDYQPGGRAPKWESTVGEQKRANAHLAGVNEEAFAGLRVARDRTLPMPKLILHALQVNIQAGRLPEPEPNGTRYLKFPLDALQGAVW,not soluble
20,MMCISKLPAVLLILSVALNHLRATPVRSGSNPQMDKRKCNTATCATQRLANFLVRSSNNLGPVLPPTNVGSNTYGKRNAAGDPNRESLDFLLV,not soluble
21,MGSDKIHHHHHHMTLTTKTIHVIGASFAGLAFVDKYKDLNPDSQIILIDKESCPNYIPNGINQLFRGDIQDLSDAMWGRACLAAQIESNHRFIQAEVLAIEAPSNTLLLKDSQGRVFEEGYETLVCAMGASPQSHYIETSQTNKVLVTKYYEESQASLKLIEASQEVLVIGAGLIGLDLAYSLSLQGKRVKLIEAAERPDFYQTDAELIAPVMAEMSTHHVTFINNKRVTAIHEIEGKVVAHTEQGDTFQGDLAILAINFRPNTHLLQGQVACALDKTILVNENLQTSQANIYAIGDMVSLHFGILGMDYYTPLINQAMKTGQALALHLAGYPIPPLQTVKVLGSSHFDYYRASVGVTEEEAELYMDTCSYLYQNGDSKNLFWLKLIARKTDGILIGAQLLSKTNALVIANQLGQALALKVTDADLAFQDFLFLQGHSDLAYHLHEACLKLFEKRLRHED,not soluble
22,MGSDKIHHHHHHMMILIQSRGKMKCKELSEELEVSERQIKSYKMYLEQAGIFINSTPGIYGGYEIDKCNSISLIKLLDSEVSILDMINSQLEYNNDIYKNEFNNIVEKIKAVLNTGEKSDTYMDYFTVQAQRNCDYESEKNKCNEIIRAYTTKHKFWIEYYSLNSGNSERIVHPYGLFNYKSDTYMVAFCEKRFKFIDFKLCRIKDYKVLEEKYNVDKSFSWDEYSKNSIGIYKGEEINVVIKISHPFSTIIKEKVWVNNQQIIEYDDKSIMFKAKMRGYEEIKSWILSMGAYVEVVEPDRLRNDILSEIEKMKKIY,not soluble
